Columns and labels:
[1] = D-glucose adsorption by PVPP, HPAEC of samples treated with and without PVPP; format: physicochemical
Procedure: FIG. 8: Lack of D-glucose adsorption by PVPP.
High Performance Anion Exchange Chromatography (HPAEC): HPAEC coupled with integrated amperometric detection (IAD) (Dionex, U.K.) was used to detect D-glucose using a CarboPac™ PA10 column (2×250 mm, Dionex). Seven different monosaccharides including L-Fucose, L-rhamnose, D-galactose, L-arabinose, D-glucose, D-manose and D-xylose were used as references. The D-glucose was separated isocratically at a flow rate 0.35 mL/min with 24 mM NaOH (pH>12.5) over 18 min. The column was then washed with a linear gradient of NaOH from 24 mM to 200 mM over 5 min. The IAD waveform was set following manufacturer's recommendation.
Stage 3, detection: 50 μl of the reaction mix were transferred to a 96-well filtration plate (Abgene, U.K.), mixed with an equal volume of PVPP aqueous suspension (25 g/L), shaken for 1 h at 25° C. before centrifugation (1000 g, 5 min). To each filtrate, 50 mM 2-morpholino-ethanesulfonic acid buffer (MES) (pH 7.0), ABTS™ (0.1 mM), peroxidase (2 U) and glucose oxidase (2 U) were added to a final volume of 125 μl. The formation of the green dye was monitored at 405 nm at 30 min using a plate reader (Bio-Tec Instruments Inc., U.S.A).

[2] = Autohydrolysis of esculin in MES buffer, RP-HPLC; format: physicochemical; conditions: 50 mM MES buffer (pH 7.0), 44 h at 25° C.
Procedure: (§1) FIG. 5: Investigation of ecsulin hydrolysis. Neither a) autohydrolysis in MES buffer nor b) hydrolysis in bacterial culture of esculin (12) was detected. Samples at 24 h, 44 h incubation and additionally a standard of the aglycone esculetin (11) are illustrated;
(§2) For these controls, samples were incubated for 44 h at 25° C. as in the standard experimental conditions, and analyzed by RP-HPLC to confirm the lack of aglycone (esculetin, 11) (FIG. S1).

[3] = test system: E. coli transformed with pGEX-2T vector; test: Hydrolysis of esculin in bacterial culture, RP-HPLC; conditions: 44 h at 25° C.
Procedure: as §1, §2

[4] = Whole-cell biocatalysis screen of GT library against the aglycone daidzein (RP-HPLC of glucosides); format: cell-based, E. coli; conditions: for regioselectivity for the 7-OH of daidzein: percentage of a regiospecific glucoside in the total amount of monoglucosides formed
Description: FIG. 3: Screening of a GT-library against the aglycone daidzein. a) The readings at A405 nm for D-glucose detection are presented in a colored code format. b) Examples of RP-HPLC trace of active and non-active GTs in whole-cell biocatalysis are illustrated. c) The regioselectivity of the active GTs towards daidzein, defined by the percentage of a regiospecific glucoside in the total amount of monoglucosides formed;
Reverse-phase HPLC (RP-HPLC): RP-HPLC (Agilent 1100 system with Photodiode Array Detector, Agilent, U.K.) analysis was carried out using a Columbus 5-μ C18 column (150×3.20 mm, Phenomenex, U.K.). Glucosides were separated from their respective aglycones using a linear gradient of acetonitrile/0.1% formic acid (v/v) in H2O: 10-45% (trans-resveratrol/glucosides), 10-50% (daidzein/glucosides) at 0.5 mL/min over 20 min and monitored at 280 nm and 250 nm. Separation of scopoletin/scopolin and esculetin/esculin was carried out using the conditions described previously.^[11]
The cDNA library of 96 Arabidopsis thaliana GTs was subcloned into the multiple cloning site of the glutathione-S-transferase (GST) gene fusion vector pGEX-2T (Amersham Biosciences, U.K.) as described previously^[10] and transformed into the strain E. coli BL21 (DE3) for use in the screening method.
Stage 1, biotransformation: single colonies of the GT library grown on LB-agar plates overnight were transferred to individual wells in a 96-well bacterial culture plate containing 400 μl 2×YT medium (16 g/L bacto tryptone, 10 g/L yeast extract, 5 g/L NaCl) and 50 μg/mL ampicillin. The plate was covered with an adhesive plate seal (Abgene, U.K.) and incubated at 37° C. (250 rpm). The bacterial growth was monitored at 595 nm by a plate reader. After 4 h, the cultures had reached exponential phase. The plate was centrifuged (4000 g, 10 min), the supernatants discarded and cell pellets were resuspended in isopropyl-D-thiogalactopyranoside (0.1 mM), 2-(N-morpholino)ethanesulfonic acid (50 mM, pH 7.0), ampicillin (50 μg/mL), L-arabinose (10 g/L) and 500 µM of aglycone to a total whole-cell reaction volume of 400 μl/well. The 96-well plate was closed with a gas permeable adhesive plate seal, wrapped in alu foil for light protection and incubated at 25° C. (250 rpm). After 44 h the cultures were centrifuged (4000 g, 15 min) and the supernatants analyzed. […]
Stage 3, detection: 50 μl of the reaction mix were transferred to a 96-well filtration plate (Abgene, U.K.), mixed with an equal volume of PVPP aqueous suspension (25 g/L), shaken for 1 h at 25° C. before centrifugation (1000 g, 5 min). […] The formation of the green dye was monitored at 405 nm at 30 min using a plate reader (Bio-Tec Instruments Inc., U.S.A). […]

Molecule: O=C[C@H](O)[C@@H](O)[C@H](O)[C@H](O)CO [D-glucose]
- loss of D-glucose by filtration through PVPP [1]: no significant loss

Molecule: O=c1ccc2cc(O[C@@H]3O[C@H](CO)[C@@H](O)[C@H](O)[C@H]3O)c(O)cc2o1 [esculin, esculetin-6-O-glucoside]
- autohydrolysis during incubation [2]: lack of autohydrolysis
- hydrolysis in the presence of the bacterial culture [3]: not hydrolyzed

B1: GT 73B2: Arabidopsis thaliana glycosyltransferase, SEQ ID NO: 23 (nucleotide), 115 (amino acid) (protein, listed as Arabidopsis thaliana)
chain: MGSDHHHRKLHVMFFPFMAYGHMIPTLDMAKLFSSRGAKSTILTTSLNSKILQKPIDTFKNLNPGLEIDIQIFNFPCVELGLPEGCENVDFFTSNNNDDKNEMIVKFFFSTRFFKDQLEKLLGTTRPDCLIADMFFPWATEAAGKFNVPRLVFHGTGYFSLCAGYCIGVHKPQKRVASSSEPFVIPELPGNIVITEEQIIDGDGESDMGKFMTEVRESEVKSSGVVLNSFYELEHDYADFYKSCVQKRAWHIGPLSVYNRGFEEKAERGKKANIDEAECLKWLDSKKPNSVIYVSFGSVAFFKNEQLFEIAAGLEASGTSFIWVVRKTKDDREEWLPEGFEERVKGKGMIIRGWAPQVLILDHQATGGFVTHCGWNSLLEGVAAGLPMVTWPVGAEQFYNEKLVTQVLRTGVSVGASKHMKVMMGDFISREKVDKAVREVLAGEAAEERRRRAKKLAAMAKAAVEEGGSSFNDLNSFMEEFSS
- regioselectivity for the 7-OH of daidzein [4]: 100%

B2: GT 84A1: Arabidopsis thaliana glycosyltransferase, SEQ ID NO: 81 (nucleotide), 130 (amino acid) (protein, listed as Arabidopsis thaliana)
chain: MVFETCPSPNPIHVMLVSFQGQGHVNPLLRLGKLIASKGLLVTFVTTELWGKKMRQANKIVDGELKPVGSGSIRFEFFDEEWAEDDDRRADFSLYIAHLESVGIREVSKLVRRYEEANEPVSCLINNPFIPWVCHVAEEFNIPCAVLWVQSCACFSAYYHYQDGSVSFPTETEPELDVKLPCVPVLKNDEIPSFLHPSSRFTGFRQAILGQFKNLSKSFCVLIDSFDSLEQEVIDYMSSLCPVKTVGPLFKVARTVTSDVSGDICKSTDKCLEWLDSRPKSSVVYISFGTVAYLKQEQIEEIAHGVLKSGLSFLWVIRPPPHDLKVETHVLPQELKESSAKGKGMIVDWCPQEQVLSHPSVACFVTHCGWNSTMESLSSGVPVVCCPQWGDQVTDAVYLIDVFKTGVRLGRGATEERVVPREEVAEKLLEATVGEKAEELRKNALKWKAEAEAAVAPGGSSDKNFREFVEKLGAGVTKTKDNGY
- regioselectivity for the 7-OH of daidzein [4]: 100%

B3: GT 73B1: Arabidopsis thaliana glycosyltransferase, SEQ ID NO: 22 (nucleotide), 114 (amino acid) (protein, listed as Arabidopsis thaliana)
chain: MGTPVEVSKLHFLLFPFMAHGHMIPTLDMAKLFATKGAKSTILTTPLNAKLFFEKPIKSFNQDNPGLEDITIQILNFPCTELGLPDGCENTDFIFSTPDLNVGDLSQKFLLAMKYFEEPLEELLVTMRPDCLVGNMFFPWSTKVAEKFGVPRLVFHGTGYFSLCASHCIRLPKNVATSSEPFVIPDLPGDILITEEQVMETEEESVMGRFMKAIRDSERDSFGVLVNSFYELEQAYSDYFKSFVAKRAWHIGPLSLGNRKFEEKAERGKKASIDEHECLKWLDSKKCDSVIYMAFGTMSSFKNEQLIEIAAGLDMSGHDFVWVVNRKGSQEEKEDWLPEGFEEKTKGKGLIIRGWAPQVLILEHKAIGGFLTHCGWNSLLEGVAAGLPMVTWPVGAEQFYNEKLVTQVLKTGVSVGVKKMMQVVGDFISREKVEGAVREVMVGEERRKRAKELAEMAKNAVKEGGSSDLEVDRLMEELTLVKLQKEKV
- regioselectivity for the 7-OH of daidzein [4]: 100%

B4: GT 73C4: Arabidopsis thaliana glycosyltransferase, SEQ ID NO: 30 (nucleotide), 121 (amino acid) (protein, listed as Arabidopsis thaliana)
chain: MASEKSHKVHPPLHFILFPFMAQGHMIPMIDIARLLAQRGATVTIVTTRYNAGRFENVLSRAMESGLPINIVHVNFPYQEFGLPEGKENIDSYDSMELMVPFFQAVNMLEDPVMKLMEEMKPRPSCIISDLLLPYTSKIARKFSIPKIVFHGTGCFNLLCMHVLRRNLEILKNLKSDKDYFLVPSFPDRVEFTKPQVPVETTASGDWKAFLDEMVEAEYTSYGVIVNTFQELEPAYVKDYTKARAGKVWSIGPVSLCNKAGADKAERGNQAAIDQDECLQWLDSKEDGSVLYVCLGSICNLPLSQLKELGLGLEKSQRSFIWVIRGWEKYNELYEWMMESGFEERIKERGLLIKGWSPQVLILSHPSVGGFLTHCGWNSTLEGITSGIPLITWPLFGDQFCNQKLVVQVLKAGVSAGVEEVMKWGEEEKIGVLVDKEGVKKAVEELMGASDDAKERRRRVKELGESAHKAVEEGGSSHSNITYLLQDIMQQVKSKN
- daidzein glucosides formed / positions glycosylated ([4]; whole-cell biocatalysis, 500 µM aglycone, 44 h, 25° C.): produced the diglucoside in addition to the monoglucosides

— patent US20090280543A1, “REGIOSELECTIVE GLYCOSYLATION” (THE UNIVERSITY OF YORK, priority 2005, published 2009)
